Data on two proteins can be found in publication doi:10.1101/243014, “RNA-binding proteins with mixed charge domains self-assemble and aggregate in Alzheimer’s Disease” (bioRxiv, 2018).

“And” between values parts separate entries of the source, which are not always exact repeats. Identical values can stand only once.

This series deals with the molecule itself. The experiment in a line: native gel or EMSA; blue native PAGE (3-12% NativePAGE Bis-Tris) of 0.8 ug purified protein in loading buffer with 50 mM TCEP, 30 min at room temperature; Coomassie and western blot with Myc antibodies. Background: A gel shift assay detects complexes by their altered migration in electrophoresis.

B1: N-terminal domain (residues 1–99) of rU1-70K (domain or fragment, UniProt P08621 1-99, looked up)
chain: MTQFLPPNLLALFAPRDPIPYLPPLEKLPHEKHHNQPYCGIAPYIREFEDPRDAPPPTRAETREERMERKRREKIERRQQEVETELKMWDPHNDPNAQG
notes: U1-70K residues 1-99 (N-terminus); The GST carrier was kept in BN-PAGE (~65 kDa on SDS-PAGE); also called N-terminus (1–99 residues) alone; source: HEK293, transfected, in lysate
As to B1, the stoichiometry N (as a rule, the number of molecules, sites or subunits per partner or assembly) was found to be 2.

B2: LC1 domain (residues 231–308) of rU1-70K (domain or fragment, UniProt P08621 231-308, looked up)
chain: RDRDRDRERERRERSRERDKERERRRSRSRDRRRRSRSRDKEERRRSRERSKDKDRDRKRRSSRSRERARRERERKEE
notes: The GST carrier was kept in BN-PAGE (~65 kDa on SDS-PAGE); also called LC1 alone; mixed charge LC1 domain; source: HEK293, transfected, in lysate
Turning to B2, the “stoichiometry N” value was 2 and 3 and 4.
